Measurements from US20250326840A1 (QURE BIOTECHNOLOGY SHANGHAI, published 2025).
Each block holds one binder with its values, some of them ahead of it.

What was measured:
[1] = target: T1, QP271 (rhesus SIRPα1-flag-his T-557-28) (rhesus monkey); assay: binding ELISA, antigen coated
T1 construct: also called rhesus monkey SIRPα (QP271); monkeySIRPα1-flag-his
T1 chain: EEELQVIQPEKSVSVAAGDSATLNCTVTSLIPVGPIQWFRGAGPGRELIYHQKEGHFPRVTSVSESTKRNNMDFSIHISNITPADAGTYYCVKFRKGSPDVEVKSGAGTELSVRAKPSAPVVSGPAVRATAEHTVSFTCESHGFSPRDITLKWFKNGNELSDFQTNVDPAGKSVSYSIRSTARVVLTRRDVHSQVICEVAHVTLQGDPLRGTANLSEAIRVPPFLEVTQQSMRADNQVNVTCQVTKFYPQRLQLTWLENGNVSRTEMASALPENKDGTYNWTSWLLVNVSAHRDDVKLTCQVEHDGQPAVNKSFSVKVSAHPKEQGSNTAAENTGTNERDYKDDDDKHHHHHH

[2] = target: T2, QP273 (cynoSIRPα2-flag-his T-557-14) (cynomolgus); assay: binding ELISA, antigen coated
T2 construct: also called cynomolgus SIRPα (QP273)
T2 chain: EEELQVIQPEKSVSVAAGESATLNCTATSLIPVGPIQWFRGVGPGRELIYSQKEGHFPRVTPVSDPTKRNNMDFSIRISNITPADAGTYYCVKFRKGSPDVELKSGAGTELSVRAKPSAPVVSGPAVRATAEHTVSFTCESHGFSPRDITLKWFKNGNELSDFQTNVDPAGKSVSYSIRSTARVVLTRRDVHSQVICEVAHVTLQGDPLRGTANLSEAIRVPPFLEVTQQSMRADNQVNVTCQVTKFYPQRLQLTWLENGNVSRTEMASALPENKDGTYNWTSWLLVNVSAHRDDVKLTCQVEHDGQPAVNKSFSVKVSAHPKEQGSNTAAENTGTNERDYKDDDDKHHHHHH

[3] = target: T3, QP100 (cyno SIRPα (G7PGS8) ECD(E29-R368)-flag-his) (cynomolgus); assay: binding ELISA, antigen coated
T3 construct: the construct carries flag and his tags; also called cynoSIRPα-flag-his; Cynomolgus SIRPα (QP100)
T3 chain: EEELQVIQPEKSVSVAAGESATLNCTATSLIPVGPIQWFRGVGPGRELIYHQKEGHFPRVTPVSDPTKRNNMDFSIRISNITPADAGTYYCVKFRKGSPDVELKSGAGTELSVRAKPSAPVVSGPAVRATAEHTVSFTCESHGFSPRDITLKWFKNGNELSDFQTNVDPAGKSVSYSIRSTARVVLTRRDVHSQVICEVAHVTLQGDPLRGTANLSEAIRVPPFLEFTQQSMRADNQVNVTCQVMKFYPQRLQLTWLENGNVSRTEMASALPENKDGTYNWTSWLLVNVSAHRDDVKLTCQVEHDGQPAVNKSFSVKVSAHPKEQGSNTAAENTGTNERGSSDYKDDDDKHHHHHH

[4] = target: T4, QP098 (cyno SIRPα (I7G9Z7) ECD(E31-R369)-flag-his) (cynomolgus); assay: binding ELISA, antigen coated
T4 construct: the construct carries flag and his tags; also called cynoSIRPα (ECD); cynomolgus SIRPα
T4 chain: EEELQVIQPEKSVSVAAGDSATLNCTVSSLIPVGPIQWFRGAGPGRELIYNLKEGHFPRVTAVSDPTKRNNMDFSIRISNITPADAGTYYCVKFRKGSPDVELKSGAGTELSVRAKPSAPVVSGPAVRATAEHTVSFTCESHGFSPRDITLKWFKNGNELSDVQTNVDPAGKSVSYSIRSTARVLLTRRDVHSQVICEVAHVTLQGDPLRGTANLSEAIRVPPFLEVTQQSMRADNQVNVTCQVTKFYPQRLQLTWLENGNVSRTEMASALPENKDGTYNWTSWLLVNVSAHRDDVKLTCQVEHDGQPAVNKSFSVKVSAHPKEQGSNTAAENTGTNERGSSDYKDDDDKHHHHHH

[5] = target: T1, QP271 (rhesus SIRPα1-flag-his T-557-28); assay: SPR, Biacore
[6] = target: T2, QP273 (cynoSIRPα2-flag-his T-557-14); assay: SPR, Biacore
[7] = target: T4, QP098 (cyno SIRPα (I7G9Z7) …); assay: SPR, Biacore
QP003 (PDL1-his) [8] = assay: ELISA, QP003 (PDL1-his) captured on coated anti-his, anti-hFc detection; unit from the x axis; the curve is flat at the baseline, the fit is marked ambiguous (~)
QP002 = target: T5, QP002 (biotinylated in the blocking assays, sites not given); assay: blocking ELISA: CD47 FC (QP001) coated, biotin SIRPα-FC (QP002) mixed with the antibody, HRP-streptavidin; blocked ligand: CD47; unit from the x axis Log(Conc.(nM))
T5 construct: also called SIRPα-FC; Biotin-QP002

[9] = target: SIRPα V3 fusion Fc (mouse IgG2a) (human); assay: ELISA, SIRPα V3-mouse IgG2a Fc coated, anti-hFab detection; unit from the x axis; the curve is flat at the baseline, the fit is marked ambiguous (~)
[10] = target: SIRPα V2 fusion Fc (mouse IgG2a) (human); assay: ELISA, SIRPα V2-mouse IgG2a Fc coated, anti-hFab detection; unit from the x axis; the curve is flat at the baseline, the fit is marked ambiguous (~)
QP003 (PDL1-his) [11] = assay: ELISA, QP003 (PDL1-his) captured on coated anti-his, anti-hFc detection; unit from the x axis; no rising curve is seen for it, the fit is marked ambiguous (~)
QP094 (human SIRPα V1 …) = target: T6, QP094 (human SIRPα V1 ECD(E31-R370)-flag-his) (human, UniProt P78324 31-370); assay: SPR, Biacore 8K
T6 construct: the construct carries flag and his tags; also called SIRPαV1-flag-his; SIRPαV1-his (QP094)

QP003 (PDL1-his), sequence (chain, as listed by the source limits assumed): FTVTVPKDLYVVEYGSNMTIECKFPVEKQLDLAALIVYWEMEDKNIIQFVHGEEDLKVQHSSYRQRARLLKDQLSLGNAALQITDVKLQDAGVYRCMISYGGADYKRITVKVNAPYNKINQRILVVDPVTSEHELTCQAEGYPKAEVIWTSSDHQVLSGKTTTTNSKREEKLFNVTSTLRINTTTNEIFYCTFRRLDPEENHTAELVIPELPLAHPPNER
SIRPα V2 fusion Fc (mouse IgG2a) (human), sequence (chain, as listed by the source limits assumed): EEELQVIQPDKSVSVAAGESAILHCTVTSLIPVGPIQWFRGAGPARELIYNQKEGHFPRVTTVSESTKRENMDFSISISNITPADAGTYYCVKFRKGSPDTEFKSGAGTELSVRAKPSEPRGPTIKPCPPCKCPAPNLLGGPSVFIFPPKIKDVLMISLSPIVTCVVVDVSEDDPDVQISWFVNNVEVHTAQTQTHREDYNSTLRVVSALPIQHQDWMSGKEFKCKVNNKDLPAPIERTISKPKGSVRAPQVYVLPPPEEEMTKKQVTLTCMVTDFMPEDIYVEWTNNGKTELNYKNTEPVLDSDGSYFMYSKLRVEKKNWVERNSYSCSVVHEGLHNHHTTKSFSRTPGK
T5 sequence (SIRPα-Fc fusion chain, as listed by the source): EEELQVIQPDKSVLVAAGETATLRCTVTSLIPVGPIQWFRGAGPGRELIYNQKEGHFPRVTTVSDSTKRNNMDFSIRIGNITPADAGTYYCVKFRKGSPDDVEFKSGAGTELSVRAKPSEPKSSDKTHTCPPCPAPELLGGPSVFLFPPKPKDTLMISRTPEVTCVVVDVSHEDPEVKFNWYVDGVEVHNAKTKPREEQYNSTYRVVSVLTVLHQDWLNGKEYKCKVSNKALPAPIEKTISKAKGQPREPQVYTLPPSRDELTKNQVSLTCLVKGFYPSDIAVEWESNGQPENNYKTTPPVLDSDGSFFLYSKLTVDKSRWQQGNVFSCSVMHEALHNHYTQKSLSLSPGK

EC50 [1]: 0.601 ng/mL | EC50 [2]: 0.721 ng/mL | EC50 [3]: 0.558 ng/mL | EC50 [4]: 0.619 ng/mL | Kd [5]: 0.441 nM | Kd [6]: 0.918 nM | Kd [7]: 1.56 nM
B1: QP256279 (antibody, human IgG4, V domains shown)
VH: QVQLVQSGAEVKKPGASVKVSCKASGYTFTNYWINWVRQAPGQGLEWIAMIDPSDSETHYNQIFKDRATLTTDTSTSTAYMELRSLRSDDTAVYYCAMDYGSLYAMDYWGRGTLVTVSS
VL: DIVLTQSPDSLAVSLGERATINCRASQSVRSSGYNWIFWYQQKPGQPPKLLIYLASNRDSGVPDRFSGSGSGTDFTLTISSLQAEDVAVYYCQHSRELPTFGQGTKLEIK
notes: Human IgG4 heavy constant region and kappa CL

EC50 (QP003 (PDL1-his) [8]): ~0.628 pM | IC50 (QP002): 0.208 nM
B2: QP32700279 (antibody, human IgG1, kappa, L234A L235A, V domains shown)
VH: QVQLVQSGAEVKKPGASVKVSCKASGYTFTNYWINWVRQAPGQGLEWIAMIDPSDSETHYNQIFKDRATLTTDTSTSTAYMELRSLRSDDTAVYYCAMDYGSLYAMDYWGRGTLVTVSS
VL: DIVLTQSPDSLAVSLGERATINCRASQSVRSSGYNWIFWYQQKPGQPPKLLIYLASNRDSGVPDRFSGSGSGTDFTLTISSLQAEDVAVYYCQHSRELPTFGQGTKLEIKR
notes: also called SIRPα monoclonal antibody CHO71

EC50 [9]: ~58.7 nM | EC50 [10]: ~0.0554 nM
B3: QP250251 (18D5 analog) (antibody, human IgG4 S228P, kappa, V domains shown)
VH: QVQLQQPGAELVRPGSSVKLSCKASGYTFTSYWVHWVKQRPIQGLEWIGNIDPSDSDTHYNQKFKDKASLTVDKSSSTAYMQLSSLTFEDSAVYYCVRGGTGTMAWFAYWGQGTLVTVSA
VL: DVVMTQTPLSLPVSLGDQASISCRSSQSLVHSYGNTYLYWYLQKPGQSPKLLIYRVSNRFSGVPDRFSGSGSGTDFTLKISRVEAEDLGVYFCFQGTHVPYTFGSGTKLEIKR
notes: also called SIRPα antibody 18D5 from OSE

EC50 (QP003 (PDL1-his) [11]): ~0.685 pM | Kd (QP094 (human SIRPα V1 …)): 4.7 nM | koff (QP094 (human SIRPα V1 …)): 0.00386 s⁻¹ | kon (QP094 (human SIRPα V1 …)): 822000 M⁻¹ s⁻¹
B4: QP026249 (KWAR23 analog) (antibody, human IgG4 S228P, kappa)
heavy: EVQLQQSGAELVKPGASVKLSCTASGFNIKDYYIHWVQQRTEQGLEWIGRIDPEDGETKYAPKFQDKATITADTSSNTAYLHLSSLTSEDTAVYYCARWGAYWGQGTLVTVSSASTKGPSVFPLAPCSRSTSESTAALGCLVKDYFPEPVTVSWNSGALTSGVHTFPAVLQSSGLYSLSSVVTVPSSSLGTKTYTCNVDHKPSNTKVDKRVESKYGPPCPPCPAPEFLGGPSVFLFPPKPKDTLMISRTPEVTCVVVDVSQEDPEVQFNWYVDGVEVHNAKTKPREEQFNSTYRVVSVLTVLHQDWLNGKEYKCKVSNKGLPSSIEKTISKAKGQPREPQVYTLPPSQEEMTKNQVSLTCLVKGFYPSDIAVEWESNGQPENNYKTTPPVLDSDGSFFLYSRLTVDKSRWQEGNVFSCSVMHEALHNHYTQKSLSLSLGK
light: QIVLTQSPAIMSASPGEKVTLTCSASSSVSSSYLYWYQQKPGSSPKLWIYSTSNLASGVPARFSGSGSGTSYSLTISSMEAEDAASYFCHQWSSYPRTFGAGTKLELKRTVAAPSVFIFPPSDEQLKSGTASVVCLLNNFYPREAKVQWKVDNALQSGNSQESVTEQDSKDSTYSLSSTLTLSKADYEKHKVYACEVTHQGLSSPVTKSFNRGEC
notes: also called KAWA23 analog; control antibody KWAR23 (QP026249), human IgG4
